# Measured values reported in US20230279126A1 (published 2023).
# Positions count from the first letter of the chain named.
# T1: extracellular domain of human IL23R (hIL23R ECD) (human, UniProt Q5VWK5 24-355)
# T1 construct: The immunogen was an ECD-human IgG1 hinge-Fc fusion
# T1 sequence: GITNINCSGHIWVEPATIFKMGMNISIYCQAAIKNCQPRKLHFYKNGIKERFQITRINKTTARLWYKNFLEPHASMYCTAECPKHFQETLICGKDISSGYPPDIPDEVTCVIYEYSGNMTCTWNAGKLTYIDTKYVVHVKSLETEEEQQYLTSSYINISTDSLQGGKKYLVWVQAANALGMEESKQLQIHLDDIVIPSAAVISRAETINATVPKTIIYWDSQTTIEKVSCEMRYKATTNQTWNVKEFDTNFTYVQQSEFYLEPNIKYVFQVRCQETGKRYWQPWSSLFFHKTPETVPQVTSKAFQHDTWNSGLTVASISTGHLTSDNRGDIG
# T2: extracellular domain of mouse IL12RB1 (mIL12Rb1 ECD) (mouse, UniProt Q60837 20-565)
# T2 construct: The immunogen was a fusion of the ECD with the human IgG1 hinge and Fc; also called mIL12Rb1 ECD antigen
# T2 sequence: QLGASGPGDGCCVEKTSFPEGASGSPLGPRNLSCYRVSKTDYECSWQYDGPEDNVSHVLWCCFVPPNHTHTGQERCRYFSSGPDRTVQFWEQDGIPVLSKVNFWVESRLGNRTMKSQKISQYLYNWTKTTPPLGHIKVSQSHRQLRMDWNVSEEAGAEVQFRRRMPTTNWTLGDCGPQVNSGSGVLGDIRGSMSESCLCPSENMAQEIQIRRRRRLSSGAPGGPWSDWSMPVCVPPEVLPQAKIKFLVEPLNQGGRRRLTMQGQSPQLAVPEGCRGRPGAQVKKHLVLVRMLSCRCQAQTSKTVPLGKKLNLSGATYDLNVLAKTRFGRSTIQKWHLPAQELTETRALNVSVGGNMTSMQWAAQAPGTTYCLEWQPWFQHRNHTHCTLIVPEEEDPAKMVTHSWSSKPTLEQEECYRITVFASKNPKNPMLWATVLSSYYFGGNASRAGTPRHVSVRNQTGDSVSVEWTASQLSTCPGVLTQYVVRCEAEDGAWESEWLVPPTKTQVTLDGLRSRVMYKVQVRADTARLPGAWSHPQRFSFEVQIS
# B1: hIL23R_VHH3 (VHH)
# VHH: QVQLQESGGGSVQAGESLRLSCAASGYTYCTYDMTWYRQAPGKKREFVSGIHSDGTTSYADSVKGRFTISQDNAENTVYLQMNSLKPEDTAMYYCKTDPIATITRRCDSYWGQGTQVTVSS
# notes: Phagemid clone with his-tag, periplasmic extract
# B2: hIL23R_VHH2 (VHH)
# VHH: QVQLQESGGGSVQAGGSLRLSCAASGYTYCSYDMSWYRQAPGKKREFVSSFNSDGSTSYADSVKGRFTISQDNAKNTVYLQMNSLKPEDTAMYYCKTDPHADWGAPCGGDYWGQGTQVTVSS
# notes: as for B1
# B3: hIL23R_VHH4 (VHH)
# VHH: B2 VHH with Y27S, S31T, S35T, K44R, S50A, F51I, H100N, A101S, D102G
# notes: as for B1
# B4: hIL23R_VHH1 (VHH)
# VHH: QVQLQESGGGSVQAGGSLRLSCAASGYTYCSYDMSWYRQAPGKKREFVSAFNSDGTTSYADSVKGRFTISQDKAKNTVYLQMNSLKPEDTAMYYCKTDPHVQSSGGYCPPYWGQGTQVTVSS
# notes: as for B1
# B5: hIL23R_VHH5 (VHH)
# VHH: B4 VHH with F51I, N52A, T56S, V63L, K73N
# notes: as for B1
# B6: hIL23R_VHH10 (VHH)
# VHH: QVQLQESGGGSVQAGGSLKLSCAASGYTYCNYDIAWYRQAPGKERKFVSAIASDGSTSYADSVKGRFTISQDNAKNTVYLQMNSLKPEDTAMYYCKTDPIATMTRRCDPYWGQGTQVTVSS
# notes: as for B1
# B7: hIL23R_VHH18 (VHH)
# VHH: B6 VHH with K19R, S21A
# notes: as for B1
# B8: hIL23R_VHH7 (VHH)
# VHH: B6 VHH with K19R, S56I, A101S, M103I, R106I
# notes: as for B1
# B9: hIL23R_VHH16 (VHH)
# VHH: B6 VHH with Q13E, S17A, K19T, A23V
# notes: as for B1
# B10: hIL23R_VHH11 (VHH)
# VHH: B1 VHH with E16G, T31S, G50A, H52D, T56S, E75K, T104S
# notes: as for B1
# B11: hIL23R_VHH6 (VHH)
# VHH: QVQLQESGGGLVQPGGSLRLSCAASGYTYCSYDMGWYRQAPGKKRKFVSSINSDGTTSYADSVKGRFTISQDNAKNTVYLQMNSLKPEDTAMYYCKTDPQTRPGKPCADYWGQGTQVTVSS
# notes: as for B1
# B12: hIL23R_VHH9 (VHH)
# VHH: B11 VHH with P14A, G35S, K44E
# notes: as for B1
# B13: mIL12Rb1_VHH19 (VHH)
# VHH: QVQLQESGGGSVQAGGFLRLSCVASGYGYCGYDMSWYRQVPGKEREFVALITSDRSVSYEDSVKGRFSISRDNAKNTAYLEMNRLTPDDTAIYYCKTSTAARENNWCRSRYRIASWGQGTQVTVSS
# notes: as for B1
# B14: mIL12Rb1_VHH20 (VHH)
# VHH: QVQLQESGGGSVQAGGSLRLSCVASGYGYCGYDMSWYRQTPGKEREFVALITSDRIASYEDSVKGRFIISRDNAKNTGYLDMTRVTPDDTAIYYCKTSAAARENSWCRSRYRVASWGQGTQVTVSS
# notes: as for B1
# B15: mIL12Rb1_VHH15 (VHH)
# VHH: B13 VHH with I92V, S115Y
# notes: as for B1
# B16: mIL12Rb1_VHH8 (VHH)
# VHH: B13 VHH with V40A, D54E, S56V, V57I, K75E, A78G, T99A, N104S, N105S, I113V
# notes: as for B1
# B17: mIL12Rb1_VHH2 (VHH)
# VHH: QVQLQESGGGSVQAGGSLRLSCAVSGYDYCGYDVRWYRQAPGKEREFVSGIDSDGSTSYADSVKGRFTISQDNAENTSYLHMFSLKPEDTAMYYCKTESPAGESAWCRNFRGMDYWGKGTQVTVSS
# notes: as for B1
# B18: mIL12Rb1_VHH10 (VHH)
# VHH: B17 VHH
# notes: as for B1
# B19: mIL12Rb1_VHH21 (VHH)
# VHH: B17 VHH with Q39R
# notes: as for B1
# B20: mIL12Rb1_VHH7 (VHH)
# VHH: B17 VHH with Q39R
# notes: as for B1
# B21: mIL12Rb1_VHH16 (VHH)
# VHH: B17 VHH with D52N, S99G
# notes: as for B1
# B22: mIL12Rb1_VHH4 (VHH)
# VHH: QVQLQESGGGSVQAGGSLRLSCAASRYTYTNNFMAWFRQAPGKEREGVAAIYTGDGYAYYFDSVKGRFTISQDNDKNMLYLQMNSLKPEDTAMYYCAAMERRSGRRRMTENAEYKYWGQGTQVTVSS
# notes: as for B1
# B23: mIL12Rb1_VHH12 (VHH)
# VHH: B22 VHH with D62Y, K76E, S103I, R105T
# notes: as for B1
# B24: mIL12Rb1_VHH5 (VHH)
# VHH: QVQLQESGGGSVQAGETLRLSCTVSGFTIDDSEMGWYRQAPGHECELVASGSSDDDTYYVDSVKGRFTISLDNAKNMVYLQMNSLKPEDTAVYYCATGPTYPPKDGDCAHWGQGTQVTVSS
# notes: as for B1
# B25: mIL12Rb1_VHH1 (VHH)
# VHH: QVQLQESGGGSVQAGGSLRLSCTASGYTYSSAFMAWFRQAPGKEREGVAAIYTRDGGTVYADSVKGRFTISQDNAKNTLYLQMNSLKAEDTAMYYCAAKIPQPGRASLLDSQTYDYWGQGTQVTVSS
# notes: as for B1
# B26: mIL12Rb1_VHH18 (VHH)
# VHH: B25 VHH with I51M, A88T
# notes: as for B1
# B27: mIL12Rb1_VHH23 (VHH)
# VHH: B25 VHH with A88P, I100M
# notes: as for B1
# B28: mIL12Rb1_VHH17 (VHH)
# VHH: B25 VHH with I51M, M83I, N84H, S85T
# notes: as for B1
# B29: mIL12Rb1_VHH22 (VHH)
# VHH: B25 VHH with T78I
# notes: as for B1
# B30: mIL12Rb1_VHH6 (VHH)
# VHH: B25 VHH with G57S, T58P, V64L, Y80H, A88P, Q102E, A106I, Q119H
# notes: as for B1
# B31: mIL12Rb1_VHH9 (VHH)
# VHH: B14 VHH with T40A, I56S, A57I, G65A, K75A, V85L, N104S
# notes: as for B1
# B32: mIL12Rb1_VHH3 (VHH)
# VHH: QVQLQESGGGSVQAGGSLRLSCVASGYSYCGYDMMWYRQAPGKEREFVALITSDYSIRYEDSVEGRFSISRDNAKNTGYLLMSNLTPADTAIYYCKTSTAARESSWCRSRYRVASWGQGTQVTVSS
# notes: as for B1
# B33: mIL12Rb1_VHH11 (VHH)
# VHH: B32 VHH
# notes: as for B1
# B34: mIL12Rb1_VHH13 (VHH)
# VHH: B32 VHH with S105G
# notes: as for B1
# Target: T1, extracellular domain of human IL23R …
# Test: periplasmic extract ELISA (PE-ELISA) of phage clones, colorimetric
# In short: (§1)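 VHH domains were obtained from camels immunized sequentially with human and mouse receptor extracellular domain–Fc fusion proteins, then cloned with a his-tag into a phagemid in E. coli. The phage library was panned over several rounds on the human or mouse extracellular domain, and single clones were checked for selective binding by colorimetric periplasmic extract ELISA.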
row,Binder,binding result
1,B1,binds
2,B2,binds
3,B3,binds
4,B4,binds
5,B5,binds
6,B6,binds
7,B7,binds
8,B8,binds
9,B9,binds
10,B10,binds
11,B11,binds
12,B12,binds

# Target: T2, extracellular domain of mouse IL12RB1 …
# Test: as above
# In short: as §1
row,Binder,binding result
1,B13,binds
2,B14,binds
3,B15,binds
4,B16,binds
5,B17,binds
6,B18,binds
7,B19,binds
8,B20,binds
9,B21,binds
10,B22,binds
11,B23,binds
12,B24,binds
13,B25,binds
14,B26,binds
15,B27,binds
16,B28,binds
17,B29,binds
18,B30,binds
19,B31,binds
20,B32,binds
21,B33,binds
22,B34,binds
